Measurements reported in paper PMC9639671 (DNA repair, 2022).
Positions count from the first letter of the chain named. In names and notes the source's numbering stands.

B1: wild-type S. cerevisiae Mlh1-Pms1 (complex)
chain 1: MSLRIKALDASVVNKIAAGEIIISPVNALKEMMENSIDANATMIDILVKEGGIKVLQITDNGSGINKADLPILCERFTTSKLQKFEDLSQIQTYGFRGEALASISHVARVTVTTKVKEDRCAWRVSYAEGKMLESPKPVAGKDGTTILVEDLFFNIPSRLRALRSHNDEYSKILDVVGRYAIHSKDIGFSCKKFGDSNYSLSVKPSYTVQDRIRTVFNKSVASNLITFHISKVEDLNLESVDGKVCNLNFISKKSISPIFFINNRLVTCDLLRRALNSVYSNYLPKGNRPFIYLGIVIDPAAVDVNVHPTKREVRFLSQDEIIEKIANQLHAELSAIDTSRTFKASSISTNKPESLIPFNDTIESDRNRKSLRQAQVVENSYTTANSQLRKAKRQENKLVRIDASQAKITSFLSSSQQFNFEGSSTKRQLSEPKVTNVSHSQEAEKLTLNESEQPRDANTINDNDLKDQPKKKQKLGDYKVPSIADDEKNALPISKDGYIRVPKERVNVNLTSIKKLREKVDDSIHRELTDIFANLNYVGVVDEERRLAAIQHDLKLFLIDYGSVCYELFYQIGLTDFANFGKINLQSTNVSDDIVLYNLLSEFDELNDDASKEKIISKIWDMSSMLNEYYSIELVNDGLDNDLKSVKLKSLPLLLKGYIPSLVKLPFFIYRLGKEVDWEDEQECLDGILREIALLYIPDMVPKVDTSDASLSEDEKAQFINRKEHISSLLEHVLFPCIKRRFLAPRHILKDVVEIANLPDLYKVFERC
chain 2: MTQIHQINDIDVHRITSGQVITDLTTAVKELVDNSIDANANQIEIIFKDYGLESIECSDNGDGIDPSNYEFLALKHYTSKIAKFQDVAKVQTLGFRGEALSSLCGIAKLSVITTTSPPKADKLEYDMVGHITSKTTTSRNKGTTVLVSQLFHNLPVRQKEFSKTFKRQFTKCLTVIQGYAIINAAIKFSVWNITPKGKKNLILSTMRNSSMRKNISSVFGAGGMRGLEEVDLVLDLNPFKNRMLGKYTDDPDFLDLDYKIRVKGYISQNSFGCGRNSKDRQFIYVNKRPVEYSTLLKCCNEVYKTFNNVQFPAVFLNLELPMSLIDVNVTPDKRVILLHNERAVIDIFKTTLSDYYNRQELALPKRMCSQSEQQAQKRLKTEVFDDRSTTHESDNENYHTARSESNQSNHAHFNSTTGVIDKSNGTELTSVMDGNYTNVTDVIGSECEVSVDSSVVLDEGNSSTPTKKLPSIKTDSQNLSDLNLNNFSNPEFQNITSPDKARSLEKVVEEPVYFDIDGEKFQEKAVLSQADGLVFVDNECHEHTNDCCHQERRGSTDTEQDDEADSIYAEIEPVEINVRTPLKNSRKSISKDNYRSLSDGLTHRKFEDEILEYNLSTKNFKEISKNGKQMSSIISKRKSEAQENIIKNKDELEDFEQGEKYLTLTVSKNDFKKMEVVGQFNLGFIIVTRKVDNKYDLFIVDQHASDEKYNFETLQAVTVFKSQKLIIPQPVELSVIDELVVLDNLPVFEKNGFKLKIDEEEEFGSRVKLLSLPTSKQTLFDLGDFNELIHLIKEDGGLRRDNIRCSKIRSMFAMRACRSSIMIGKPLNKKTMTRVVHNLSELDKPWNCPHGRPTMRHLMELRDWSSFSKDYEI
B2: Mlh1-K54C-Pms1 mutant complex (complex, S. cerevisiae)
chain 1: B1 chain 1 with K54C
chain 2: B1 chain 2

Target: S. cerevisiae Msh2-Msh6 (S. cerevisiae, UniProt P25847 1-964; Q03834 1-1242)
Sequence (P25847 whole entry, chain 1 of 2): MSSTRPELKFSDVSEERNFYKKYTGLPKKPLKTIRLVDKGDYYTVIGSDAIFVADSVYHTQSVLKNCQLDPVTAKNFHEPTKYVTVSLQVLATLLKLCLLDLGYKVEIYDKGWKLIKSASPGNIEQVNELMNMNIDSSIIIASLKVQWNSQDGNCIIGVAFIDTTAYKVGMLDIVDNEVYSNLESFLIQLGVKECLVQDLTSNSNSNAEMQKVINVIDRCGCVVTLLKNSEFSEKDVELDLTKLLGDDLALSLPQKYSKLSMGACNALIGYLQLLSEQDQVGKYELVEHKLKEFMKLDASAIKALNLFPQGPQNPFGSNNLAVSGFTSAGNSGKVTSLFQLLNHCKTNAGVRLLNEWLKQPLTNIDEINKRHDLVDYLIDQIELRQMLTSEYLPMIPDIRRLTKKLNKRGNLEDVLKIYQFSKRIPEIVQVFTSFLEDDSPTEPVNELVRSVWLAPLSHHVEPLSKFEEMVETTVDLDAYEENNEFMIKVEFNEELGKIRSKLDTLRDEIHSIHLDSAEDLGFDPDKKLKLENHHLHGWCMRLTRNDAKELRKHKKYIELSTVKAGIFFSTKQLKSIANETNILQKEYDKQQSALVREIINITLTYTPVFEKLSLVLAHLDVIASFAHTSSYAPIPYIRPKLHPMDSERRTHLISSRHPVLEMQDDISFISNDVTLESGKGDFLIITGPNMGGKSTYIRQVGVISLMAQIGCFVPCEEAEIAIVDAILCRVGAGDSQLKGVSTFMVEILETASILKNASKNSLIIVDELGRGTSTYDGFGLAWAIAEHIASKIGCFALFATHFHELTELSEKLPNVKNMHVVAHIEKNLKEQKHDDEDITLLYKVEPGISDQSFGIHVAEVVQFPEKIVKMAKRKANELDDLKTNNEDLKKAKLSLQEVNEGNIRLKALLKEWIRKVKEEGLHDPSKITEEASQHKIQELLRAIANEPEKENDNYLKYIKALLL
Sequence (Q03834 whole entry, chain 2 of 2): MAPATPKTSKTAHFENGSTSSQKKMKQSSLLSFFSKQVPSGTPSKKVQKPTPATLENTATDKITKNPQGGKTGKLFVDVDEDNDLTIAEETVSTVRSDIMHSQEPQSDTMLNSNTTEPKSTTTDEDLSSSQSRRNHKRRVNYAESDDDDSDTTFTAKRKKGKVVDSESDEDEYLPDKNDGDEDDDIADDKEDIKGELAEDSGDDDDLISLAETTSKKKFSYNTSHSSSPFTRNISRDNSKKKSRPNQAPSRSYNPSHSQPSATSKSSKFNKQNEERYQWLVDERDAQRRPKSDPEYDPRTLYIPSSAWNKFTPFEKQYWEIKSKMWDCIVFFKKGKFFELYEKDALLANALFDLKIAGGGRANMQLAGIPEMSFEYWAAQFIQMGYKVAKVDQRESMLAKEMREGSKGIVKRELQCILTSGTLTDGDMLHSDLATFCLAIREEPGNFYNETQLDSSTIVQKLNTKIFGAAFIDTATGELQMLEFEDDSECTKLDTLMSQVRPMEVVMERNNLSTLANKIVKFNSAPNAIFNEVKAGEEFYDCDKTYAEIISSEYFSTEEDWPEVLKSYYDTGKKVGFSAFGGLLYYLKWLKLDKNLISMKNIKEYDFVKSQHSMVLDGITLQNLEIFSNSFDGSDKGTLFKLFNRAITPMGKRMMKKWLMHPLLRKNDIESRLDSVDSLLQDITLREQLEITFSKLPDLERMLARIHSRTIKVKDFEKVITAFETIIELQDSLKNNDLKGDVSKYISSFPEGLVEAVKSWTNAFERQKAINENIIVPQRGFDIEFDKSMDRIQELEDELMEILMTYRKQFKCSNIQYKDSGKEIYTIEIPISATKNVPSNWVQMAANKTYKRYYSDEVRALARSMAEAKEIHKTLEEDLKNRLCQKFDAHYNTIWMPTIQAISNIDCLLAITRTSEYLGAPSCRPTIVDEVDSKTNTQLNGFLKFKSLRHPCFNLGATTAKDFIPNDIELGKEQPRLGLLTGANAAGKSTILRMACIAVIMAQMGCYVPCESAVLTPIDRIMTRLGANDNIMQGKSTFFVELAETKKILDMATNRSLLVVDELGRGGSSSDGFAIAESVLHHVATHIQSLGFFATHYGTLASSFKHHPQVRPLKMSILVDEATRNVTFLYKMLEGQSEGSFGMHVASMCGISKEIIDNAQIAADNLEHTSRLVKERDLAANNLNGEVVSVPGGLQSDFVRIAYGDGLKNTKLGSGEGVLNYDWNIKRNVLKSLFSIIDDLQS
Experiment: SPR

| Binder | binding result |
| --- | --- |
| B1 | binds |
| B2 | binds |
